Measured values reported in IntAct's records for PubMed 14769790.

B1: Ferredoxin-thioredoxin reductase, catalytic chain (Synechocystis sp. (strain PCC 6803 / Kazusa)), Q55389 (parent)
chain: MTSSDTQNNKTLAAMKNFAEQYAKRTDTYFCSDLSVTAVVIEGLARHKEELGSPLCPCRHYEDKEAEVKNTFWNCPCVPMRERKECHCMLFLTPDNDFAGDAQDIPMETLEEVKASMA
partner: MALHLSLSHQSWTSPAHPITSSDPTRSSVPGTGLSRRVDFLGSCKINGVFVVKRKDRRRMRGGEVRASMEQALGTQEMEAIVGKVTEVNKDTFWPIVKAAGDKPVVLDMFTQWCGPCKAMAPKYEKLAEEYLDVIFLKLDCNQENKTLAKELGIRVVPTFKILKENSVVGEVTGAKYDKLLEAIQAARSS
B2: Ferredoxin-thioredoxin reductase, catalytic chain (Synechocystis sp. (strain PCC 6803 / Kazusa)), Q55389 (parent)
chain: B1 chain
partner: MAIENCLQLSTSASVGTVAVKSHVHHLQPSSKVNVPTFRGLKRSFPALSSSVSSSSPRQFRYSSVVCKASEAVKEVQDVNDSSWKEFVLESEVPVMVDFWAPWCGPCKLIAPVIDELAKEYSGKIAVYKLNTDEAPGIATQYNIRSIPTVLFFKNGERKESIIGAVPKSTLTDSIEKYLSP
B3: Thioredoxin M-type, chloroplastic (Spinacia oleracea (Spinach)), P07591 (parent)
chain: B2 partner
partner: B1 chain

Variants of: B1
Conditions: with trxf_spiol trxf

effect of a mutation on the interaction | Variant
increasing interaction | C58S

Variants of: B2
Conditions: with trxm_spiol trxm, P07591

effect of a mutation on the interaction | Variant
decreasing interaction | H87Y

Variants of: B3
Conditions: with ftrc_syny3 ftrC, Q55389

effect of a mutation on the interaction | Variant
increasing interaction | C107S
